Variants at the floor of the assay were thinned out.
Tests used:
biotinyl-Leu-oxazolone = test: self-aminoacylation, catalytic enhancement (BLO) (fold over background); higher = more active; k-Seq, kA / k0A0; sequences stand for … in GGGAAUGGAUCCACAUCUACGAAUUC…UUCACUGCAGACUUGACGAAGCUG
Summary of the method: (§1)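 Each biotinyl-aminoacyl-oxazolone, at 2–1250 μM, was incubated with mutagenized RNA pools (0.43 μM) carrying a 21-nt variable region. The 50 μL reactions contained HEPES/NaCl/KCl/MgCl2/CaCl2 buffer with 5% acetonitrile at pH 6.9–7.0 and ran for 90 minutes at room temperature. After streptavidin capture, RNA was measured by qPCR in triplicate and by Illumina sequencing, and catalytic enhancement was calculated as median kA over the uncatalyzed rate from a pseudo-first-order fit of per-sequence fraction reacted.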

biotinyl-Phe-oxazolone = test: self-aminoacylation, catalytic enhancement (BFO) (fold over background); higher = more active; k-Seq, kA / k0A0; sequences stand for … in GGGAAUGGAUCCACAUCUACGAAUUC…UUCACUGCAGACUUGACGAAGCUG
Summary of the method: as §1

biotinyl-Trp-oxazolone = test: self-aminoacylation, catalytic enhancement (BWO) (fold over background); higher = more active; k-Seq, kA / k0A0; sequences stand for … in GGGAAUGGAUCCACAUCUACGAAUUC…UUCACUGCAGACUUGACGAAGCUG
Summary of the method: as §1

biotinyl-Ile-oxazolone = test: self-aminoacylation, catalytic enhancement (BIO) (fold over background); higher = more active; k-Seq, kA / k0A0; sequences stand for … in GGGAAUGGAUCCACAUCUACGAAUUC…UUCACUGCAGACUUGACGAAGCUG
Summary of the method: as §1

biotinyl-Val-oxazolone = test: self-aminoacylation, catalytic enhancement (BVO) (fold over background); higher = more active; k-Seq, kA / k0A0; sequences stand for … in GGGAAUGGAUCCACAUCUACGAAUUC…UUCACUGCAGACUUGACGAAGCUG
Summary of the method: as §1

biotinyl-Met-oxazolone = test: self-aminoacylation, catalytic enhancement (BMO) (fold over background); higher = more active; k-Seq, kA / k0A0; sequences stand for … in GGGAAUGGAUCCACAUCUACGAAUUC…UUCACUGCAGACUUGACGAAGCUG
Summary of the method: as §1

| Sequence | self-aminoacylation (biotinyl-Leu-oxazolone) | self-aminoacylation (biotinyl-Phe-oxazolone) | self-aminoacylation (biotinyl-Trp-oxazolone) | self-aminoacylation (biotinyl-Ile-oxazolone) | self-aminoacylation (biotinyl-Val-oxazolone) | self-aminoacylation (biotinyl-Met-oxazolone) |
| --- | --- | --- | --- | --- | --- | --- |
| CUACUUGAAAUAAUCGGUCUG [Fam1A.1 aminoacylation ribozyme variant] | 0.68 | 0.723 | 0.619 | 0.785 | 0.784 | 0.801 |
| CUACUUGAACCAAUCGGUCUG [Fam1A.1 aminoacylation ribozyme variant] | 0.941 | 0.74 | 0.582 | 0.821 | 0.879 | 0.841 |
| CUACUUUAAACAAUCGAUCUG [Fam1A.1 aminoacylation ribozyme variant] | 0.683 | 0.815 | 0.852 | 0.768 | 0.741 | 0.675 |
| CUACUUUAAACAAUCGGUCAG [Fam1A.1 aminoacylation ribozyme variant] | 0.588 | 0.862 | 0.417 | 0.617 | 0.655 | 0.716 |
| CUAGACUUCAAGCAAUCGGUC [Fam1B.1 aminoacylation ribozyme variant] | 1.37 | 34.1 | 16.2 | 0.981 | 0.979 | 1.05 |
| CUAGAUCAAACAAUCGGUCUG [Fam1A.1 aminoacylation ribozyme variant] | 0.708 | 2.24 | 1.22 | 0.703 | 0.798 | 0.578 |
| CUAGUUCAAACAAUAGGUCUG [Fam1A.1 aminoacylation ribozyme variant] | 1.09 | 0.923 | 0.721 | 1.04 | 0.952 | 0.949 |
| CUAGUUCAAACAAUCGGGCUG [Fam1A.1 aminoacylation ribozyme variant] | 1.79 | 2.64 | 2.72 | 1.54 | 1.42 | 1.4 |
| CUAGUUCAAACAAUCGGUCUA [Fam1A.1 aminoacylation ribozyme variant] | 0.647 | 2.81 | 1.43 | 0.813 | 0.759 | 0.777 |
| CUAGUUCAACCAAUCGGUCUG [Fam1A.1 aminoacylation ribozyme variant] | 1.06 | 3.36 | 2.82 | 1 | 0.913 | 0.955 |
| CUAGUUGAAACAAUCGGUCUG [Fam1A.1 aminoacylation ribozyme variant] | 0.841 | 0.861 | 0.834 | 0.923 | 0.828 | 0.974 |
| CUAUACUUCAAGCAAUCGGUC [Fam1B.1 aminoacylation ribozyme variant] | 1.06 | 21.3 | 9.69 | 0.782 | 0.936 | 0.837 |
| CUAUCUCAAACAAUCGGUCUG [Fam1A.1 aminoacylation ribozyme variant] | 0.628 | 1.87 | 1.35 | 0.789 | 0.781 | 0.856 |
| CUAUUUCAAACAAGCGGUCUG [Fam1A.1 aminoacylation ribozyme variant] | 1.02 | 0.738 | 0.77 | 1.01 | 0.933 | 0.882 |
| CUAUUUCAAACACUCGGUCUG [Fam1A.1 aminoacylation ribozyme variant] | 0.875 | 1.36 | 0.925 | 0.995 | 0.921 | 0.95 |
| CUAUUUCAAGCAAUCGGUCUG [Fam1A.1 aminoacylation ribozyme variant] | 0.996 | 1.61 | 0.883 | 0.881 | 0.795 | 0.741 |
| CUAUUUCACACAAUCGGUCUG [Fam1A.1 aminoacylation ribozyme variant] | 0.766 | 0.675 | 0.617 | 0.88 | 0.774 | 0.848 |
| CUAUUUCUAACAAUCGGUCUG [Fam1A.1 aminoacylation ribozyme variant] | 0.824 | 0.973 | 0.668 | 0.913 | 0.787 | 0.818 |
| CUCCUUCAAAAAAUCGGUCUG [Fam1A.1 aminoacylation ribozyme variant] | 1.3 | 11.8 | 9.62 | 1.16 | 1.01 | 1.09 |
| CUCCUUCAAACAAUCGAUCUG [Fam1A.1 aminoacylation ribozyme variant] | 0.589 | 2.82 | 1.2 | 0.586 | 0.705 | 0.571 |
| CUCCUUCAAACAAUCGGUAUG [Fam1A.1 aminoacylation ribozyme variant] | 1.24 | 13.8 | 11.2 | 0.742 | 0.866 | 1.07 |
| CUCCUUCAAACAAUCGGUCUC [Fam1A.1 aminoacylation ribozyme variant] | 1.75 | 40.8 | 26.2 | 1.11 | 0.933 | 1.19 |
| CUCCUUCAAACAAUCGGUUUG [Fam1A.1 aminoacylation ribozyme variant] | 1.89 | 43.9 | 30.6 | 1.17 | 1.4 | 1.3 |
| CUCCUUCAAACAAUCGUUCUG [Fam1A.1 aminoacylation ribozyme variant] | 0.472 | 1.68 | 0.785 | 0.51 | 0.631 | 0.501 |
| CUCCUUCAAACAAUCUGUCUG [Fam1A.1 aminoacylation ribozyme variant] | 0.554 | 2.63 | 1.23 | 0.655 | 0.61 | 0.516 |
| CUCCUUCACACAAUCGGUCUG [Fam1A.1 aminoacylation ribozyme variant] | 0.686 | 1.55 | 0.895 | 0.907 | 0.985 | 0.799 |

| Sequence | self-aminoacylation (biotinyl-Leu-oxazolone) | self-aminoacylation (biotinyl-Phe-oxazolone) | self-aminoacylation (biotinyl-Trp-oxazolone) | self-aminoacylation (biotinyl-Ile-oxazolone) | self-aminoacylation (biotinyl-Val-oxazolone) | self-aminoacylation (biotinyl-Met-oxazolone) |
| --- | --- | --- | --- | --- | --- | --- |
| CUCCUUGAAACAAUCGGUCUG [Fam1A.1 aminoacylation ribozyme variant] | 1.18 | 1.25 | 1.73 | 1.1 | 1.19 | 1.31 |
| CUCCUUUAAACAAUCGGUCUG [Fam1A.1 aminoacylation ribozyme variant] | 0.712 | 1.73 | 1.36 | 0.972 | 0.974 | 1.12 |
| CUGCUUCAAACAACCGGUCUG [Fam1A.1 aminoacylation ribozyme variant] | 0.793 | 0.915 | 0.921 | 0.683 | 0.932 | 0.664 |
| CUGCUUCAAACAAUCGGACUG [Fam1A.1 aminoacylation ribozyme variant] | 1.79 | 49.5 | 28.3 | 1.13 | 1.21 | 1.26 |
| CUGCUUCAAACAAUCGGUCGG [Fam1A.1 aminoacylation ribozyme variant] | 3.72 | 183 | 59.6 | 1.48 | 1.71 | 2.05 |
| CUGCUUCAAACAAUCGGUCUA [Fam1A.1 aminoacylation ribozyme variant] | 2.18 | 80.1 | 38.8 | 1.3 | 1.34 | 1.33 |
| CUGCUUCAAACUAUCGGUCUG [Fam1A.1 aminoacylation ribozyme variant] | 0.976 | 1.35 | 0.937 | 0.856 | 1.07 | 0.752 |
| CUGCUUCAAAGAAUCGGUCUG [Fam1A.1 aminoacylation ribozyme variant] | 1.39 | 14.5 | 11.7 | 1.04 | 0.891 | 1.19 |
| CUGCUUCACACAAUCGGUCUG [Fam1A.1 aminoacylation ribozyme variant] | 0.836 | 0.641 | 0.824 | 0.733 | 0.757 | 0.911 |
| CUUACCAUGGUCAUCGAGUGA [Fam2.1 aminoacylation ribozyme variant] | 5.9 | 14.4 | 7.03 | 3.16 | 3 | 5.89 |
| CUUACCCAGGUCAUCGAGUGA [Fam2.1 aminoacylation ribozyme variant] | 4.56 | 4.25 | 5.54 | 3.04 | 3.6 | 4.94 |
| CUUACCCUGGCCAUCGAGUGA [Fam2.1 aminoacylation ribozyme variant] | 4.34 | 9.12 | 3.51 | 2.78 | 2.65 | 2.99 |
| CUUACCCUGGGCAUCGAGUGA [Fam2.1 aminoacylation ribozyme variant] | 7.09 | 20.7 | 6.01 | 2.57 | 3.33 | 5.55 |
| CUUACCCUGGUAAUCGAGUGA [Fam2.1 aminoacylation ribozyme variant] | 7.47 | 24.3 | 8.08 | 3.22 | 3.18 | 6.18 |
| CUUACCCUGGUCAGCGAGUGA [Fam2.1 aminoacylation ribozyme variant] | 6.11 | 29.2 | 7.19 | 3.42 | 3.69 | 4.38 |
| CUUACCCUGGUCAUCGAGCGA [Fam2.1 aminoacylation ribozyme variant] | 1.96 | 1.09 | 2.72 | 1.36 | 1.35 | 2.13 |
| CUUACCCUGGUCAUCGGGUGA [Fam2.1 aminoacylation ribozyme variant] | 17.1 | 93.6 | 13.9 | 5.25 | 7.68 | 16 |
| CUUACCCUGGUUAUCGAGUGA [Fam2.1 aminoacylation ribozyme variant] | 7.11 | 23.2 | 8.54 | 3.35 | 3.58 | 6.78 |
| CUUAUCCUGGUCAUCGAGUGA [Fam2.1 aminoacylation ribozyme variant] | 6.22 | 7.87 | 6.96 | 3.22 | 3.42 | 6.26 |
| CUUCACAUAGGUCAUCGGGUG [Fam2.2 aminoacylation ribozyme variant] | 6.86 | 33 | 5.58 | 3.77 | 3.98 | 5.24 |
| CUUCACCUAGGGCAUCGGGUG [Fam2.2 aminoacylation ribozyme variant] | 3.99 | 17.5 | 4.25 | 2.75 | 3.04 | 2.91 |
| CUUCACCUAGGUCAUCGAGUG [Fam2.2 aminoacylation ribozyme variant] | 7.37 | 9.18 | 4.55 | 4.29 | 4.22 | 5.78 |
| CUUCACCUAGGUCAUCGGGGG [Fam2.2 aminoacylation ribozyme variant] | 1.86 | 3.92 | 3.57 | 2.31 | 2.37 | 2.35 |
| CUUCACCUAGGUCAUCUGGUG [Fam2.2 aminoacylation ribozyme variant] | 2.25 | 4.76 | 2.15 | 1.58 | 1.74 | 1.79 |
| CUUCACCUAGGUCGUCGGGUG [Fam2.2 aminoacylation ribozyme variant] | 2.43 | 9.55 | 2.19 | 2.2 | 2.54 | 2.39 |
